Results taken from publication PMC7749050 (ACS synthetic biology, 2020).

What was measured:
Assay in all cases: two-hybrid
[1] = molecular target: Rhodopseudomonas palustris BphP1 (RpBphP1), mammalian two-hybrid construct (Rhodopseudomonas palustris)
[2] = molecular target: T1, GAL4-BD-DrBphP, mammalian two-hybrid bait (Deinococcus radiodurans (strain not …, UniProt Q9RZA4))
[3] = molecular target: T1, GAL4-BD-DrBphP, mammalian two-hybrid …; remark: listed apart in the source

T1 sequence (Q9RZA4 whole entry, looked up, the tested form may be a part): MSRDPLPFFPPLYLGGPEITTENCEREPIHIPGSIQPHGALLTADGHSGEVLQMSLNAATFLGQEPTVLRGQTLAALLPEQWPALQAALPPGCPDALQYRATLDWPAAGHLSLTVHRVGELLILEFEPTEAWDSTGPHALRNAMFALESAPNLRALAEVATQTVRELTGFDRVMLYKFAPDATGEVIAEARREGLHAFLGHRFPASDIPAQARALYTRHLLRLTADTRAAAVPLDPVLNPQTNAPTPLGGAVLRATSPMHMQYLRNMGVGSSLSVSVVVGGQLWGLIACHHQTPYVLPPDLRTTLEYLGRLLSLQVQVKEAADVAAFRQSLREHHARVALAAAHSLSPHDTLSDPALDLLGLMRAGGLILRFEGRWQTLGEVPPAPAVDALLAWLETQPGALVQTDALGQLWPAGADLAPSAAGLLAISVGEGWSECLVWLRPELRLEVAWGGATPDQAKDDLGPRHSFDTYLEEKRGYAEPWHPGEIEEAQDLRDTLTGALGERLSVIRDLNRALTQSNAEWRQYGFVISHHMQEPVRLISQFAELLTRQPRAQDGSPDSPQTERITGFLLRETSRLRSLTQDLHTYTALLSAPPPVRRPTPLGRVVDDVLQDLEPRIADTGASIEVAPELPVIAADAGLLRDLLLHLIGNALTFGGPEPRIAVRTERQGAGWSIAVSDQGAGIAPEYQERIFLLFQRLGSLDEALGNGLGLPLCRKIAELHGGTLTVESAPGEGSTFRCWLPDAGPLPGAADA

fold increase of luciferase expression, 775-nm light over dark [1]	fold increase of GFP level, 654-nm light over dark [2]	fold increase of luciferase expression, 654-nm light over dark [3]	Molecule
2.95 fold	–	–	PpsR2, mammalian two-hybrid construct (natural protein)
–	~44 fold	~19.5 fold	LDB-3-p65, mammalian two-hybrid prey (VHH) VHH: EVQLQASGGGFVQPGGSLRLSCAASGFTWDHYIMGWFRQAPGKEREFVSAISENGDAWNYYADSVKGRFTISRDNSKNTVYLQMNSLRAEDTATYYCAIGFDVPSGRSWQGSHFWMYWGQGTQVTVSS
–	~39 fold	~19.1 fold	LDB-14-p65, mammalian two-hybrid prey (VHH) VHH: EVQLQASGGGFVQPGGSLRLSCAASGTTSRWESMGWFRQAPGKEREFVSAISWQNNSVPYYADSVKGRFTISRDNSKNTVYLQMNSLRAEDTATYYCAAQHNFLGHRYWGQGTQVTVSS
